In paper PMC7660301, “Phe-140 Determines the Catalytic Efficiency of Arylacetonitrilase from Alcaligenes faecalis” (International Journal of Molecular Sciences, 2020):

Key:
[1] = target: T1, Arylacetonitrilase from Alcaligenes faecalis (NitAF) (Alcaligenes faecalis, UniProt P20960); experiment: ammonia release, Michaelis-Menten; assay type: biochemical; settings: 50 mM buffer pH 7.5, 10% methanol, 30 °C, 0.5-30 mM substrate
T1 construct: full-length with C-terminal His6 tag (tag kept), vector pTrc99A-derived, E. coli BL21(DE3), Ni-NTA; 1071 bp, 357 amino acids printed; subunit about 32 kDa by SDS-PAGE, native about 460 kDa (homo-oligomer)
T1 sequence (P20960 whole entry): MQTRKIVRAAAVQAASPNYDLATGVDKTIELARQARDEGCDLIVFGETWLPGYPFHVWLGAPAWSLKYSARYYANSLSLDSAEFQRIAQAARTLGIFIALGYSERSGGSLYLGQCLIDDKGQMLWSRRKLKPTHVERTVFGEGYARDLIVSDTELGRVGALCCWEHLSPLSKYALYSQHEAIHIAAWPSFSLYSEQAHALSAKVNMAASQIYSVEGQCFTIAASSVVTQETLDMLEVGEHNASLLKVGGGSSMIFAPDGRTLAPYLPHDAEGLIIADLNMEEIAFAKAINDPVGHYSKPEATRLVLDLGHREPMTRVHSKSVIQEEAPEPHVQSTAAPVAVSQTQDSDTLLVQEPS
Text: (§1) ammonia release, Michaelis-Menten on Arylacetonitrilase from Alcaligenes faecalis (NitAF)

[2] = test system: N#CCc1ccccc1; experiment: ammonia release, Michaelis-Menten; assay type: biochemical, Alcaligenes faecalis; settings: 50 mM buffer pH 7.5, 10% methanol, 30 °C, 0.5-30 mM substrate
Text: as §1

Molecule	Km [1] [µM]	Km [2] [µM]	kcat [2] [s⁻¹]	kcat/Km [2] [M⁻¹ s⁻¹]
N#CCc1ccccc1 [phenylacetonitrile]	860 ± 70	–	–	–
Arylacetonitrilase from Alcaligenes faecalis (NitAF) (Alcaligenes faecalis; F140A)	–	4200 ± 410	15.6 ± 1.2	3710
Arylacetonitrilase from Alcaligenes faecalis (NitAF) (Alcaligenes faecalis; F140G)	–	24100 ± 2200	–	–
Arylacetonitrilase from Alcaligenes faecalis (NitAF) (Alcaligenes faecalis; F140H)	–	890 ± 100	63.5 ± 4.7	71400
Arylacetonitrilase from Alcaligenes faecalis (NitAF) (Alcaligenes faecalis; F140L)	–	2130 ± 210	38.8 ± 3.8	18200
Arylacetonitrilase from Alcaligenes faecalis (NitAF) (Alcaligenes faecalis; F140V)	–	2950 ± 320	25 ± 2.4	8480
Arylacetonitrilase from Alcaligenes faecalis (NitAF) (Alcaligenes faecalis; F140W)	–	1450 ± 120	143 ± 12	98600
